Literature values, collected in PMC3413252.

How the values were obtained:
surface IL6 receptor = surface IL6 receptor (UniProt P08887)
soluble IL6 receptor = soluble IL6 receptor (UniProt P08887)

Sequence of IL6 (P05231 30-212): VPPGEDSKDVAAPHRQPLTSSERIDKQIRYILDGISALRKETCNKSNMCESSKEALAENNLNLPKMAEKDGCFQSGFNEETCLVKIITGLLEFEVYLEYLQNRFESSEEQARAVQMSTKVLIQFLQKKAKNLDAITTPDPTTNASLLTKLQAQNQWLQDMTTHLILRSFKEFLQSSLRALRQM

IL6 (from UniProt P05231)
Kd (surface IL6 receptor): 0.1 nM
Kd (soluble IL6 receptor): 30 nM
